# According to patent publication US20060259987:
# T1: LEAI.472
# T1 chain: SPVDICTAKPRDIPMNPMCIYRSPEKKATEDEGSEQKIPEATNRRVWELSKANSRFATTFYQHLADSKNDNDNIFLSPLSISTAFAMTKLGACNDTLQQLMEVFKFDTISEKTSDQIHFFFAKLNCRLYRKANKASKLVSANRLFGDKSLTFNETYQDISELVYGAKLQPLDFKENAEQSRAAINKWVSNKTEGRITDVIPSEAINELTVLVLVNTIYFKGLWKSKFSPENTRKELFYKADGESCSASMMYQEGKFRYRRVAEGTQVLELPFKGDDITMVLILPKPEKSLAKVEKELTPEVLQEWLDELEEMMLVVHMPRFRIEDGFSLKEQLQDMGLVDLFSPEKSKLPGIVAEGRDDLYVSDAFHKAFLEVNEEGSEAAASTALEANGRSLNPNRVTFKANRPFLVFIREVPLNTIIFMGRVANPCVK
# T2: LEAI.474
# T2 chain: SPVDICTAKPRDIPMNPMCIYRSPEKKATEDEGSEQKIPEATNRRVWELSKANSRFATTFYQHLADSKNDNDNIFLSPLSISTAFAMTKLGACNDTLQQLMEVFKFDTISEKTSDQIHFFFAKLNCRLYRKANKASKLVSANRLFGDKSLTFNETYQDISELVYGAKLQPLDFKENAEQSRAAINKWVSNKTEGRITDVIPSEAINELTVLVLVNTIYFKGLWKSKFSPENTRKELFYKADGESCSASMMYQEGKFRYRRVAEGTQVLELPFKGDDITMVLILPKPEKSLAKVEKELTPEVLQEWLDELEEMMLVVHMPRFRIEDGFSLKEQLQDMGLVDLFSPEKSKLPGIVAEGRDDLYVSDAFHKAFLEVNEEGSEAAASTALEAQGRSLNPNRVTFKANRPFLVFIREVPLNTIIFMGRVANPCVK
# T3: LEAI.480
# T3 chain: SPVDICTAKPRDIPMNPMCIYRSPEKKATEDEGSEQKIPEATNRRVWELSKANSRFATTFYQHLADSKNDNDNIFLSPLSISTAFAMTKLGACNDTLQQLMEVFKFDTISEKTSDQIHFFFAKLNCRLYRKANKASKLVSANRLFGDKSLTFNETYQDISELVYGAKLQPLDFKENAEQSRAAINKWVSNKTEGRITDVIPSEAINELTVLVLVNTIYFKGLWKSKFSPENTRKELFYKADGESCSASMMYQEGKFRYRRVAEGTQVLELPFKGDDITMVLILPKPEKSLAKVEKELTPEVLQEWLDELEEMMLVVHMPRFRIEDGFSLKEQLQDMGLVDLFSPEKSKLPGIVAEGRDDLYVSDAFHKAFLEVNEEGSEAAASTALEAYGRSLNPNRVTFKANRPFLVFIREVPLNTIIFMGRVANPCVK
# T4: LEAI.482
# T4 chain: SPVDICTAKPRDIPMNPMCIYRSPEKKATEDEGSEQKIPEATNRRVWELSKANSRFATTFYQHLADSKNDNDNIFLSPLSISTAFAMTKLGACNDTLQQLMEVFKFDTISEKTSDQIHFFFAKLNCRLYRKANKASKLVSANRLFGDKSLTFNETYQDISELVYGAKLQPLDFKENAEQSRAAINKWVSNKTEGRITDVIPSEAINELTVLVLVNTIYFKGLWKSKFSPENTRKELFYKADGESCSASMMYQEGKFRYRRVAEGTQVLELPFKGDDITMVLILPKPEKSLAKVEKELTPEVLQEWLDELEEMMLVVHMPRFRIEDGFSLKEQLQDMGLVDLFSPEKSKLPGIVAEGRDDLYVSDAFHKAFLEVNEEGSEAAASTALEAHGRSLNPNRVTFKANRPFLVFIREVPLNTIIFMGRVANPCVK
# What was measured:
# LEAI.472 = molecular target: T1, LEAI.472
# LEAI.474 = molecular target: T2, LEAI.474
# LEAI.480 = molecular target: T3, LEAI.480
# LEAI.482 = molecular target: T4, LEAI.482
# [1] = molecular target: plasma-derived ATIII, P01008
Protein,"Substrate: halflife, min, HNE (LEAI.472)",halflife HNE/hep as a percentage of plasma ATIII value (LEAI.472),"Substrate: halflife, min, HNE (LEAI.474)",halflife HNE/hep as a percentage of plasma ATIII value (LEAI.474),"Substrate: halflife, min, HNE (LEAI.480)",halflife HNE/hep as a percentage of plasma ATIII value (LEAI.480),"Substrate: halflife, min, HNE (LEAI.482)",halflife HNE/hep as a percentage of plasma ATIII value (LEAI.482),"Substrate: halflife, min, HNE [1]","Substrate: halflife, min, CatG (LEAI.472)","Substrate: halflife, min, CatG (LEAI.474)","Substrate: halflife, min, CatG (LEAI.480)","Substrate: halflife, min, CatG (LEAI.482)"
human neutrophil elastase (protein) IVGGRRARPHAWPFMVSLQLRGGHFCGATLIAPNFVMSAAHCVANVNVRAVRVVLGAHNLSRREPTRQVFAVQRIFENGYDPVNLLNDIVILQLNGSATINANVQVAQLPAQGRRLGNGVQCLAMGWGLLGRNRGIASVLQELNVTVVTSLCRRSNVCTLVRGRQAGVCFGDSGSPLVCNGLIHGIASFVRGGCASGLYPDAFAPVAQFVNWIDSIIQ,30.1 min,1038%,38.4 min,1324%,19.9 min,686%,25.3 min,872%,2.9 min,–,–,–,–
human neutrophil cathepsin G (protein) IIGGRESRPHSRPYMAYLQIQSPAGQSRCGGFLVREDFVLTAAHCWGSNINVTLGAHNIQRRENTQQHITARRAIRHPQYNQRTIQNDIMLLQLSRRVRRNRNVNPVALPRAQEGLRPGTLCTVAGWGRVSMRRGTDTLREVQLRVQRDRQCLRIFGSYDPRRQICVGDRRERKAAFKGDSGGPLLCNNVAHGIVSYGKSSGVPPEVFTRVSSFLPWIRTTMRS,–,–,–,–,–,–,–,–,–,333 min,> 300 min,35.8 min,> 240 min
